Read-outs that look alike come from different tables or passages of the source.
What was measured:
human Tim-3 protein [1] = target: T1, human Tim-3 protein (human, UniProt Q8TDQ0 22-202, limits assumed); assay: Surface plasmon resonance
human Tim-3 protein [2] = target: T1, human Tim-3 protein; assay: surface plasmon resonance
human Tim-3 protein [3] = target: T1, human Tim-3 protein; assay: surface plasmon resonance; remark: listed apart in the source
[4] = target: T2, mouse Tim-3 expressed on cell lines (mouse, UniProt Q8VIM0 20-281); assay: FACS on cell lines expressing mouse Tim-3
T2 construct: whole, on cells

Binder	Kd (human Tim-3 protein [1]) [nM]	koff (human Tim-3 protein [2]) [s⁻¹]	kon (human Tim-3 protein [2]) [M⁻¹ s⁻¹]	koff (human Tim-3 protein [3]) [s⁻¹]	kon (human Tim-3 protein [3]) [M⁻¹ s⁻¹]	binding result [4]
mAb 15B4 (antibody, V domains shown, Mouse hybridoma antibody, IgG1 with kappa chain) VH: EVQLQQSGAEVVRPGALVKLSCKASGFNIKDYYMHWVRQRPEQGLEWIGWIDPENDNTIYDPKFQDRASITADTSSNTAYLQLSSLTSEDTAVYYCARDFGYVAWLVYWGQGTLVTVSA VL: DIVMTQSQEFMSTSVGDRVSITCKASQNVDTAVAWYQQKPGQSPKLLIYSASNRYTGVPDRFTGTGSGTDFTLTINNMQSEDLADYFCQQYSSYPTFGGRTKLEIKR	0.32	0.00029	910000			
mAb 50B5 (antibody, V domains shown, Mouse hybridoma antibody, IgG1 with kappa chain) VH: EVQLQQSGPELVKPGASMKISCKASGYSFTGYTINWVKQSHGKNLEWIGLFNPYNGGTTFNQKFKGKATLTVDKSSSTAYMELLSLTSEDSAVYYCARRYYGYDAMDYWGQGTSVTVSS VL: NIMMTQSPSSLAVSAGEKVTMSCKSSQSVLYSSNQKNHLAWYQQKPGQSPKLLIYWASTRESGVPDRFTGSGSGTDFTLTISSVQAEDLAVYYCHQYLSSYTFGGGTKLEIK	0.13			2.35e-05	187000	no binding

— patent US20250034248A1 (ALBERT EINSTEIN COLLEGE OF MEDICINE, published 2025)
